B1: TAT-d/n-ATF5: TAT-linked dominant-negative ATF5 peptide, recombinant; probably SEQ ID NO: 17 (protein)
chain: MGSSHHHHHHSSGLVPRGSHMLEYGRKKRRQRRRYPYDVPDYAMASMTGGQQMGRDPDLEQRAEELARENEELLEKEAEELEQENAELEGECQGLEARNRELRERAESV
B2: synthetic PEN-d/n-ATF5: chemically synthesized Penetratin-linked dominant-negative ATF5 peptide; probably SEQ ID NO: 19 (peptide)
chain: RQIKIWFQNRRMKWKKLEQRAEELARENEELLEKEAEELEQENAELEGECQGLEARNRELKERAESV

How the values were obtained:
Mel501 (human melanoma) = experiment: Cell line susceptibility testing; type: cell-based; conditions: 1-3 μM range
Description: (§1) For example, but not by way of limitation, cell lines shown through testing to be susceptible to TAT-d/n-ATF5 (1-3 μM range) include: U87 (human glioblastoma); U373 (human glioblastoma); LN229 (human glioblastoma); C6 (rat glioblastoma); Mel501 (human melanoma); H2452 (human mesothelioma); MDA-MB-468 (human breast cancer). In addition, a non-limiting list of cell lines shown through testing to be susceptible to PEN-d/n-ATF5 (3 μM) include: Panc-1 (human pancreatic cancer); SH-SYSY (human neuroblastoma cells); and HCT-116 (colon-carcinoma cancer). The method of the present invention can be performed in vitro as well as in vivo in a subject. As used herein, “apoptosis” refers to cell death which is wholly or partially genetically controlled.

[1] = tested on: U373 (human glioblastoma); experiment: Cell line susceptibility testing; type: cell-based; conditions: 1-3 μM range
Description: as §1

C6 (rat glioblastoma) = experiment: Cell line susceptibility testing; type: cell-based; conditions: 1-3 μM range
Description: as §1

[2] = tested on: MDA-MB-468 (human breast cancer); experiment: Cell line susceptibility testing; type: cell-based; conditions: 1-3 μM range
Description: as §1

[3] = tested on: H2452 (human mesothelioma); experiment: Cell line susceptibility testing; type: cell-based; conditions: 1-3 μM range
Description: as §1

[4] = tested on: LN229 (human glioblastoma); experiment: Cell line susceptibility testing; type: cell-based; conditions: 1-3 μM range
Description: as §1

U87 (human glioblastoma) = experiment: Cell line susceptibility testing; type: cell-based; conditions: 1-3 μM range
Description: as §1

U87 glioblastoma cells = experiment: Combination with temozolomide: apoptotic nuclei in U87 cells; type: cell-based, human; conditions: one day, sub-lethal TZIP 1 μM and TMZ 50 μM, separately or in combination
Description: (§2) Cells were cultured for one day with sub-lethal levels of TAT-d/n-ATF5 (TZIP 1 μM) and TMZ (50 μM) either separately or in combination, and then assessed for proportion of cells with apoptotic nuclei. TMZ is presently the first-line treatment for human GBM. The data reveal that TAT-d/n-ATF5 not only functions in presence of TMZ, but that the two drugs act in synergy to kill GBM cells.
as §2, with “As outlined in FIG. 18, cells” for “Cells”

DDIT3 (CHOP) = experiment: Western immunoblotting for CHOP in various tumor cell lines; type: cell-based; conditions: times and doses per FIG. 15
Description: Cells were treated with TAT-d/n-ATF5 for the indicated times at the indicated doses (in μM) and then harvested and analyzed by Western immunoblotting for expression of CHOP and other non-responsive proteins.
TAT-d/n-ATF5 (TAT-ZIP) peptide induces expression of the pro-death gene DDIT3 (CHOP) in various tumor cell lines. Cells were treated with TAT-d/n-ATF5 for the times and doses (in μM) indicated in FIG. 15 and then harvested and analyzed by Western immunoblotting for expression of CHOP and other non-responsive proteins.

MEL501 melanoma cells = experiment: Apoptotic nuclei (Hoescht dye) in melanoma cells; type: cell-based, human; conditions: four days, concentrations in μM per FIG. 13
Description: TAT-linked dominant-negative ATF5 peptide at the indicated concentrations (in μM) was added to medium of MEL501 melanoma cells. Four days later the cells were stained with Hoescht dye and the cells were stained for proportion with apoptotic nuclei.
TAT-linked dominant-negative ATF5 peptide was added to medium of MEL501 melanoma cells at the concentrations (in μM) indicated in FIG. 13. Four days later the cells were stained with Hoescht dye and the cells were stained for proportion with apoptotic nuclei.

endogenous ATF5 = experiment: Western immunoblotting for endogenous ATF5 in U373 glioblastoma cells; type: cell-based, human; conditions: 17 hrs
Sequence of endogenous ATF5 (Q9Y2D1 208-282 limits assumed): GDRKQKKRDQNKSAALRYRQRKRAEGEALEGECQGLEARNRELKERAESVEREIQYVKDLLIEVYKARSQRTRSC
Description: (§3) TAT-linked dominant-negative ATF5 peptide at the indicated concentrations (in μM) was added to medium of U373 glioblastoma cells for 17 hrs day and the cells were then harvested and analyzed by Western immunoblotting for levels of endogenous ATF5. […] As previous studies have shown that tumor cells require endogenous ATF5 to survive, the mechanism of action by which the cell-penetrating TAT-ZIP peptide kills may be by causing loss of the endogenous ATF5 protein. Note also the smear above the endogenous ATF5 when the TAT-ZIP peptide is present.
as §3, with “ATF5 peptide was added” for “ATF5 peptide at the indicated concentrations (in μM) was added”, “glioblastoma cells at the concentrations (in μM) indicated in FIG. 14 for 17” for “glioblastoma cells for 17”, “to survive, but without being bound by theory, the mechanism” for “to survive, the mechanism”

U87 cells = experiment: Apoptotic nuclei in U87 cells after CHOP silencing with siRNA; type: cell-based, human; conditions: siCHOP versus control siRNA, then peptide for 2 days
Description: Cells were treated with siCHOP to silence CHOP expression (top Western immunoblot) or with control siRNA. They were then exposed to TAT-d/n-ATF5 for 2 days and assessed for proportion of cells with apoptotic nuclei. The data support the idea that part of the mechanism by which TAT-d/n-ATF5 kills tumor cells is by increasing their expression of CHOP which in turn mediates death.
Cells were treated with siCHOP to silence CHOP expression (top Western immunoblot of FIG. 16) or with control siRNA. They were then exposed to TAT-d/n-ATF5 for 2 days and assessed for proportion of cells with apoptotic nuclei.

U373 = experiment: Cell viability, MTA assay; type: cell-based, human; conditions: 3 μM, 3-5 days
Description: (§4) FIG. 19 depicts recombinant TAT-d/n-ATF5 (3 μM) treatment for 3-5 days decreasing viability of two human and one mouse GMB cell line as established by MTA assay.

[5] = tested on: U87 human glioblastoma cells; experiment: Cell viability, MTA assay; type: cell-based
Description: as §4
FIG. 20 depicts synthetic PEN-d/n-ATF5 treatment decreasing cell viability of cultured U87 human glioblastoma cells as established by MTA assay. 5 days treatment at indicated concentrations (μM).
5 days treatment at indicated concentrations (μM), as detected using an MTA assay.

MSG Cells = experiment: Cell viability, MTA assay; type: cell-based, mouse; conditions: 3 μM, 3-5 days
Description: as §4

BCL2 survival protein = experiment: Western immunoblotting for BCL2 in U87 cells; type: cell-based, human; conditions: 30 hrs
Description: (§5) Cultured U87 human glioblastoma cells were treated with the indicated concentrations of TATZIP (TAT-d/n-ATF5 peptide) (in μM) for 30 hrs. The cells were then harvested and assessed by Western immunoblotting for expression of the survival protein BCL2. These findings indicate that in addition to elevating pro-death CHOP, TAT-d/n-ATF5 may also kill tumor cells by reducing their levels of the BCL2 survival protein.
as §5, with “As outlined in FIG. 17, cultured” for “Cultured”

[6] = tested on: U87 human glioblastoma cells; type: cell-based
From the text: (§6) FIG. 21 depicts recombinant TAT-d/n-ATF5 treatment promoting death of cultured U87 human glioblastoma cells as indicated by Annexin V/PI staining and flow cytometry. Proportions of viable cells are shown in lower left quadrant (88% control vs 58% treated). Dying cell proportions are in the lower right and upper right quadrants (9% in controls vs 36% in treated).
as §6, with “As outlined in FIG.” for “FIG.”, “21, Recombinant” for “21 depicts recombinant”, “promotes” for “treatment promoting”

[7] = tested on: primary GS9-6 human glioblastoma stem cells; experiment: Annexin V/PI staining and flow cytometry of spheres; type: cell-based; conditions: 6 days of treatment
From the text: FIG. 22 depicts synthetic PEN-d/n-ATF5 promoting apoptotic death of primary GS9-6 human glioblastoma stem cells growing in culture as spheres. 6 days of treatment and data determined by Annexin V/PI staining and flow cytometry
FIG. 23 depicts recombinant PEN-d/n-ATF5 promoting apoptotic death of primary GS9-6 human glioblastoma stem cells growing in culture as spheres. 5 days of treatment and data determined by Annexin V/PI staining and flow cytometry.
Data reflects 6 days of treatment. Data determined by Annexin V/PI staining and flow cytometry.
5 days treatment. Data determined by Annexin V/PI staining and flow cytometry.

Row | Molecule | susceptibility of cell line (Mel501 (human melanoma)) | susceptibility of cell line [1] | susceptibility of cell line (C6 (rat glioblastoma)) | susceptibility of cell line [2] | susceptibility of cell line [3] | susceptibility of cell line [4] | susceptibility of cell line (U87 (human glioblastoma)) | cell killing in combination with temozolomide (proportion of cells with apoptotic nuclei) (U87 glioblastoma cells) | expression of CHOP (DDIT3 (CHOP)) | proportion of cells with apoptotic nuclei (MEL501 melanoma cells) | levels of endogenous ATF5 (endogenous ATF5) | effect of silencing of CHOP with siRNA on death caused by the peptide (U87 cells) | cell viability (U373) | cell viability ([5]; 3 μM, 3-5 days) | cell viability (MSG Cells) | expression of the survival protein BCL2 (BCL2 survival protein) | proportion of viable cells (lower left quadrant) [6] [%] | dying cell proportion (lower right and upper right quadrants) ([6]; treated, controls 9%) [%] | apoptotic death [7] | cell viability ([5]; 5 days treatment, concentrations (μM) per FIG. 20)
1 | B1 | susceptible | susceptible | susceptible | susceptible | susceptible | susceptible | susceptible | synergizes with temozolomide (TMZ) to kill | elevation of CHOP in all cases | promoted apoptosis in a dose-dependent fashion | greatly reduces expression of endogenous ATF5 | partially protects | decreases viability | decreases viability | decreases viability | down-regulates BCL2 survival protein | 58 | 36 | – | –
2 | B2 | – | – | – | – | – | – | – | – | – | – | – | – | – | – | – | – | – | – | promotes apoptotic death | decreases cell viability
